Results taken from US20220017612A1 (TILOS THERAPEUTICS, published 2022).

T1: fusion protein of a human IgG1 Fc domain and human LAP-TGFβ2 (human, UniProt P61812 21-414)
T1 construct: also called Fc-huB2; human LAP-TGFβ2-Fc
T1 sequence: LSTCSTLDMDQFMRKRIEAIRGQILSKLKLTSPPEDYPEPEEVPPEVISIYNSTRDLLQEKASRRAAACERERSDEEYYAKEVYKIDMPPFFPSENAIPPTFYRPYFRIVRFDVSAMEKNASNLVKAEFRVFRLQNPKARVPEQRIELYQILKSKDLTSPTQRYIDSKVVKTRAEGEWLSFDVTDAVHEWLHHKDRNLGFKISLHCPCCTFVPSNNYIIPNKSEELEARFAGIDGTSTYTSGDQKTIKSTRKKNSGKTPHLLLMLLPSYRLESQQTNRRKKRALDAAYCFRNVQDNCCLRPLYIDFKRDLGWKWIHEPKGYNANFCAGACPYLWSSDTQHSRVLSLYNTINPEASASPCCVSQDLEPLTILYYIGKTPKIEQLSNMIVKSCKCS


Legend:
[1] = target: human LAP-TGFβ1 overexpressed on cells (human, UniProt P01137 30-390); assay: cell-based or functional assay
[2] = target: murine LAP-TGFβ1 overexpressed on cells (mouse, UniProt P04202 30-390); assay: cell-based or functional assay
[3] = target: T2, fusion protein of a human IgG1 Fc domain and human LAP-TGFβ1 (human, UniProt P01137 30-390); assay: BLI, 2:1 model, component 2
T2 construct: printed both as Fc-huB1 and LAP-TGFβ-Fc; also called Fc-huB1; Fc-human LAP
Method: (§1) The 20E6_H0.2aL1_IgG1 antibody was biotinylated using EZ-Link SulfoNHS-LC-Biotin (ThermoFisher). A streptavidin-functionalized tip was equilibrated in binding buffer (10 mM sodium phosphate, 150 mM sodium chloride, 1% (w/v) bovine serum albumin, 0.05% (w/v) sodium azide, pH 7.4) and dipped in a 10 μg/mL solution of biotinylated anti-LAP in binding buffer for 30 seconds to load the tip with antibody. The antibody-loaded tip was then washed in binding buffer and placed in a solution containing 0-24 nM of a fusion protein having a human IgG1 Fc domain fused to either human LAP-TGFβ1, human LAP-TGFβ2 or human LAP-TGFβ3. The antigen was allowed to bind to antibody for 5 minutes (association phase), and then the tip was moved to binding buffer (dissociation phase). The association and dissociation phases were fit to a 2:1 heterogenous ligand binding model to determine the binding rate constants. As shown in FIG. 21A and Table 17, 20E6_H0.2aL1_IgG1 bound with sub-nanomolar affinity to human LAP-TGFβ1, but not to human LAP-TGFβ2 (FIG. 21B) or LAP-TGFβ3 (FIG. 21C).
(§2) The binding of 20E6_H0.2aL1_IgG1 antibody and 20E6_H0.2aL1_hIgG4mut antibody to LAP-TGFβ1 of various species was examined by bio-layer interferometry using the method described in Example 12, except that the antibody-loaded tip was placed in a solution containing 0-24 nM of a fusion protein having a human IgG1 Fc domain fused to either mouse, rat, cynomolgus monkey, or human LAP-TGFβ1.

[4] = target: T3, fusion protein of a human IgG1 Fc domain and cynomolgus monkey LAP-TGFβ1 (human; cynomolgus monkey); assay: BLI, 2:1 model, component 2
T3 construct: also called cynomolgus monkey LAP-TGFβ-Fc
Method: as §1, §2

[5] = target: T4, fusion protein of a human IgG1 Fc domain and rat LAP-TGFβ1 (human; rat, UniProt P17246 30-390, limits assumed); assay: BLI, 2:1 model, component 2
T4 construct: also called rat LAP-TGFβ-Fc
Method: as §1, §2

[6] = target: T2, fusion protein of a human IgG1 Fc …; assay: BLI, 2:1 heterogeneous ligand model, component 1
Method: as §1

[7] = target: T1, fusion protein of a human IgG1 Fc …; assay: bio-layer interferometry, biotinylated antibody on streptavidin tip, Fc-huB2 in solution
Method: as §1

[8] = target: T5, human GARP and human LAP-TGFβ1 co-expressed on P3U1 cells (human, UniProt Q14392 20-662); assay: flow cytometry, P3U1 cells
T5 construct: whole, on cells; also called P3U1 cells over-expressing human GARP and LAP-TGFβ1
Method: This Example describes the binding of anti-LAP antibodies to LAP-TGFβ isoforms and LAP-TGFβ variants. In addition to antibodies 28G11_hIgG1, 22F9_hIgG1, and 20E6_hIgG1, anti-LAP antibodies 17G8_hIgG1, 24E3_hIgG1, and 2C9_(hyb) were also tested in this experiment. Briefly, 4×10⁵ each of (a) HT1080 cells, (b) HT1080 cells overexpressing human LAP-TGFβ1, (c) HT1080 cells overexpressing human LAP-TGFβ2, (d) HT1080 cells overexpressing human LAP-TGFβ3, (e) HT1080 cells overexpressing murine LAP-TGFβ1, (f) P3U1 cells, (g) P3U1 cells overexpressing LAP-TGFβ1 and GARP, and (h) P3U1 cells overexpressing LAP-TGFβ1 and LRRC33 were cultured in 96-well plates. The plates were centrifuged for 5 min at 1,500 rpm, liquid was removed, and cells were resuspended with 200 μL FACS buffer. The plates were centrifuged again, diluted primary antibody was added to each well, and the plates were incubated on ice for 20 minutes, followed by centrifugation. The cells were resuspended in 200 μL FACS buffer, centrifuged again, and resuspended in 50 μL diluted secondary antibody (Alexa647-anti-Human IgG or APC-anti-Mouse IgG). The plates were incubated on ice for 20 minutes in the dark, washed twice with 200 μL FACS buffer, and cells from each well (in 200 μL FACS buffer) were read on the Attune NXT instrument.

[9] = target: T2, fusion protein of a human IgG1 Fc …; assay: BLI, signal change on binding
Method: Binding to human TGFβ1 of a subset of candidates was also tested by bio-layer interferometry (Octet). A streptavidin coated tip was equilibrated for 60 seconds in binding buffer (10 mM sodium phosphate, 150 mM sodium chloride, 1% bovine serum albumin, 0.05% sodium azide). The tip was then dipped in 10 μg/mL biotinylated antibody in binding buffer. After 15 seconds, the tip was washed in binding buffer for 60 seconds, and then dipped in 0-24 nM Fc-human LAP. Analyte association was measured for 5 minutes. The tip was transferred to binding buffer alone, and analyte dissociation was measured for 5 minutes. The association and dissociation data were fit to a 1:1 binding model.

T4 sequence (P17246 30-390 limits assumed): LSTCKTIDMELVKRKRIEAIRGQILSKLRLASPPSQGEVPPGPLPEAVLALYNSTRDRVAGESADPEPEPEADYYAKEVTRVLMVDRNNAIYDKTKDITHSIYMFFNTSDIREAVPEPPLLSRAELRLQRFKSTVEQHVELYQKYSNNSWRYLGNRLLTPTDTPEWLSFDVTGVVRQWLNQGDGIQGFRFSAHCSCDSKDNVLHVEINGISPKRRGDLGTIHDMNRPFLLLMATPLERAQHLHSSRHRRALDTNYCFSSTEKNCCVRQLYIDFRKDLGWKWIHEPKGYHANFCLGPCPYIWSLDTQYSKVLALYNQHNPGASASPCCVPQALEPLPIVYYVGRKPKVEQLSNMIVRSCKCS
T2 sequence (P01137 30-390 limits assumed): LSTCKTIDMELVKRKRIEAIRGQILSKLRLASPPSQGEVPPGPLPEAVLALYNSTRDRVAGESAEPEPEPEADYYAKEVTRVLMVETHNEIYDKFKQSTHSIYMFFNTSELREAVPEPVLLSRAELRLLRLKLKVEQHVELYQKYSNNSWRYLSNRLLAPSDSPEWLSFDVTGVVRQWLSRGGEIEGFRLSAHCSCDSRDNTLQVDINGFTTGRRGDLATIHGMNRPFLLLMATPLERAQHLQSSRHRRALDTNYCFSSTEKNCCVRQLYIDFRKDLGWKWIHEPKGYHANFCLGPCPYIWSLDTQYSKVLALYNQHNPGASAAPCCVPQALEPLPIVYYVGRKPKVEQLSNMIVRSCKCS
Sequence of human LAP-TGFβ1 overexpressed on cells (P01137 30-390): as the sequence (P01137 30-390 limits assumed) above
Sequence of murine LAP-TGFβ1 overexpressed on cells (P04202 30-390): as the sequence (P17246 30-390 limits assumed) above, with D93E, T99S, F131L, T134S, V202K counted along it
T5 sequence (chain, as listed by the source, chain 1 of 2): as the sequence (P01137 30-390 limits assumed) above
T5 sequence (Q14392 20-662, chain 2 of 2): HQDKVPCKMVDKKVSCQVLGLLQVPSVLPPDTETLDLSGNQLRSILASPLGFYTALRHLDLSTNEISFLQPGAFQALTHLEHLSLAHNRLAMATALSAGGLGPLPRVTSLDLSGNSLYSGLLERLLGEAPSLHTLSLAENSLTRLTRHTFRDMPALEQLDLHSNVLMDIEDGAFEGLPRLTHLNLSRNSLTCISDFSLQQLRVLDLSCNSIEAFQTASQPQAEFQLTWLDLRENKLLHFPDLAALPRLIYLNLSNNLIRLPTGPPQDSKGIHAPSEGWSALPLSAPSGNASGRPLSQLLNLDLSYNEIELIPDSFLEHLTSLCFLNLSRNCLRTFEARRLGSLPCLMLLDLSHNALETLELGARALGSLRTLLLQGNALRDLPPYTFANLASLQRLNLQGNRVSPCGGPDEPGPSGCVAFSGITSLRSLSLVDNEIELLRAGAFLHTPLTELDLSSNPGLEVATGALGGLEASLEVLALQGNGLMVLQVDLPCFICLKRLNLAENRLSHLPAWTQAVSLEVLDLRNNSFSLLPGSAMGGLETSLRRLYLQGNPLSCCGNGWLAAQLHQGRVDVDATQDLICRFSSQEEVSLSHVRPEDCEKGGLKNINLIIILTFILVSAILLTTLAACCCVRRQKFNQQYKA

IC50 of inhibition of TGFβ1 activation [1] [µg/mL] | IC50 of inhibition of TGFβ1 activation [2] [µg/mL] | Kd [3] [nM] | koff [3] [s⁻¹] | kon [3] [M⁻¹ s⁻¹] | Kd [4] [nM] | koff [4] [s⁻¹] | kon [4] [M⁻¹ s⁻¹] | Kd [5] [nM] | koff [5] [s⁻¹] | kon [5] [M⁻¹ s⁻¹] | Kd [6] [nM] | koff [6] [s⁻¹] | kon [6] [M⁻¹ s⁻¹] | binding result [7] | binding result [8] | Binding (nm) [9] [nm] | Binder
1.3 | 1.7 | 0.97 | 0.000657 | 680000 | 0.71 | 0.000728 | 1.03e+06 | 0.68 | 0.000768 | 1.14e+06 | 11.4 | 0.0369 | 3.24e+06 | no binding (tested: 24 nM) |  |  | 20E6_H0.2aL1_hIgG1 (antibody, also called 20E6_H0.2aL1_IgG1; humanized 20E6) heavy: not shown light: DIQMTQSPSSLSASVGDRVTITCRASQDITNYLNWYQQKPGKAVKLLIYYTSRLHSGVPSRFSGSGSGTDYTLTISSLQPEDFATYFCQQGDTLPWTFGQGTKLEIKRTVAAPSVFIFPPSDEQLKSGTASVVCLLNNFYPREAKVQWKVDNALQSGNSQESVTEQDSKDSTYSLSSTLTLSKADYEKHKVYACEVTHQGLSSPVTKSFNRGEC
1.8 |  |  |  |  |  |  |  |  |  |  |  |  |  |  | binds | 0.27 | 22F9_hIgG1 (antibody, V domains shown) VH: QVQLQQPGAELVKPGASVKLSCKASGYTFTSYWMHWVKQRPGQGLEWIGMIHPNSGSTNYNEKFKSKATLTVDKSSSTAYMQLSSLTSEDSAVYYCAYYDYDGFFDVWGTGTTVTVSS VL: DIVLTQSPASLDVSLGQRATISCRASKSVSTSGYSYMHWYQQKSGQPPKLLIYLASNLESGVPARFSGSGSGTHFTLNIHPVEEEDAATYYCQHSRELPYTFGGGTKLEIK
